Among the data in patent US12312412 (dated 2025) are Kd values, retold here.

First the molecules themselves.
B1: MA 86-A4-N-F5 CC (M4H) (antibody, V domains shown)
VH: QVQLVESGGGVVQPGRSLRLSCAASGFTFSTYGMHWVRQAPGKCLEWVAVISYDAETVKYAESVKGRFTISRDNSKNTLYLQMNSLRAEDTAVYYCARGQLLTGYWGQGTLVTVSS
VL: DIQMTQSPSSLSASVGDRVTITCRASQGISNYLAWYQQKPGKVPKLLIYAASTLQSGVPSRFSGSGSGTDFTLTISSLQPEDVATYYCQKYNSAPFTFGCGTKVEIK
B2: MA 03-E11 AS CC (G2B) (antibody, V domains shown)
VH: EVQLLESGGGLVQPGGSLRLSCAASGFTFSSHAMSWVRQAPGKCLEWVSAISGSGGGTYNAASVKGRFTISRDNSKNTLYLQMNSLRAEDTAAYYCVTGKGVHLGFDYWGQGTLVTVSS
VL: SYVLTQPPSVSVAPGQTARITCGGNNIGSKSVHWYQQKPGQAPVMVVYDDNDRPSGIPERFSGSNSGNTATLTISRVEAGDEADYYCQVWDYYSNRAVFGCGTKLTVL
B3: MA 03-C7_AS CC (G2H) (antibody, V domains shown)
VH: EVQLLESGGGLVQPGGSLRLSCAASGFTFSSHAMSWVRQAPGKCLEWVSAISGSGGGTYYAASVKGRFTISRDNSKNTLYLQMNSLRAEDTAVYYCATGKGVHLGFDYWGQGTLVTVSS
VL: SYVLTQPPSVSVAPGQTARITCGGNNIGSKSVHWYQQKPGQAPVMVVYDDNDRPSGIPERFSGSNSGNTATLTISRVEAGDEADYYCQVWDYERPAMVFGCGTKLTVL
B4: MA 03-D12_AS CC (L6A) (antibody, V domains shown)
VH: EVQLLESGGGLVQPGGSLRLSCAASGFTFSSHAMSWVRQAPGKCLEWVSAISGSGGGTYYAASVKARFTISRDNSKNTLYLQMNSLRAEDTAVYYCATGKGVHLGFDYWGQGTLVTVSS
VL: SYVLTQPPSVSVAPGQTARITCGGNNIGSKSVHWYQQKPGQAPVMVVYDDNDRPSGIPERFSGSNSGNTATLTISRVEAGDEADYYCQVWDYLRQQQVFGCGTKLTVL
B5: MA 03-H12_AS CC (K5A) (antibody, V domains shown)
VH: EVQLLESGGGLVQPGGSLRLSCAASGFTFSSHAMSWVRQAPGKCLEWVSAISGSGGGTYNAASVKGRFTISRDNSKNTLYLQMNSLRAEDTAAYYCVTGKGVHLGFDYWGQGTLVTVSS
VL: SYVLTQPPSVSVAPGQTARITCGGNNIGSKSVHWYQQKPGQAPVMVVYDDNDRPSGIPERFSGSNFGNTATLTISRVEAGDEADYYCQVWDYVTPRWVFGCGTKLTVL
B6: MA 03-G11_AS CC (O4R) (antibody, V domains shown)
VH: EVQLLESGGGLVKPGGSLRLSCAASGFTFSSHAMSWVRQAPGKCLEWVSAISGSGGGTYYAASVKGRFTISRDNSKNTLYLQMNSLRAEDTAVYYCATGKGVHLNFDYWGQGTLVTVSS
VL: SYVLTQPPSVSVAPGQTARITCGGNNIGSKSVHWYQQKPGQAPVLVVYDDNDRPSGIPERFSGSNFGNTATLIISRVEAGDEADYYCQVWDYLLPGQVFGCGTKLTVL
B7: MA 10-G2 CC (T1S) (antibody, V domains shown)
VH: EVQLVESGGGLVQPGGSLRLSCAASGFTFSNAWMSWVRQAPGKCLEWVGRILSMHYGGTTDYAAPVKGRFTISRDDSKNTLYLQMNSLKTEDTAVYYCTTPSYSGSYYNYFSVMDVWGQGTTVTVSS
VL: DIQMTQSPSSLSASVGDRVTITCRTSQSISSYLNWFQQKPGKAPKLLIFAASSLQSGVPSRFSGSGSGTDFTLTISSLQPEDFATYYCQQTYSMPFTFGCGTKVDIK
B8: MA 10-H3 CC (M9L) (antibody, V domains shown)
VH: EVQLVESGGGLVQPGGSLRLSCAASGFTFSNAWMSWVRQAPGKCLEWVGRIRSRPYGGTTDYAAPVKGRFTISRDDSKNTLYLQMNSLKTEDTAVYYCTTPSYSGSYYNYFSVMDVWGQGTTVTVSS
VL: DIQMTQSPSSLSASVGDRVTITCRTSQSISSYLNWYQQKPGRAPKLLIFAASSLQGGVPSRFSGSGSGTDFTLTISSLQPEDFATYYCQQTYSSPFTFGCGTKLEIK
B9: MA 09-H7 CC (T3S) (antibody, V domains shown)
VH: QITLKESGPALVKPTQTLTLTCTFSGFSFTTHKMGVDWIRQPPGKCLEWLALIYWNDDKRYSPSLQSRLTITKDTSKNQVVLTMTNMDPVDTATYYCAYRRYNWNYENWFDPWGQGTLVTVSS
VL: DIQMTQSPSSLSASVGDRVTITCQASQDISNYLNWYQQKPGKAPKLLIYAASSLQSGVPSRFSGSGSGTDFTLTISSLQPEDFATYYCQQSYFPVVEFGCGTKVEIK

For orientation: Kd means the equilibrium constant for the complex coming apart. Low readings indicate a tighter complex, high ones a looser complex.

For this assay, the target named is MAGEB2 peptide … / HLA-A*02:01 / b2m (human). The assay can be described thus: FACS. On the technique in general: A flow cytometer gives signals particle by particle.
In turn, B1 showed a Kd of 51.8 nM.

In the case of B2, binding was put at a Kd of 4.2 nM.

Molecule B3 had a Kd of 1.5 nM.

The molecule B4 came in with a Kd of 0.7 nM.

Turning to B5, the affinity, expressed as Kd, was 1.1 nM.

Molecule B6 displayed a Kd of 1.3 nM.

B7 returned a Kd of 1 nM.

For B8, the Kd is 0.7 nM.

B9 returned a Kd of 0.8 nM.
